Source: PMC12284214, “Structural basis for the activity regulation of Medicago calcium channel CNGC15” (Cell Discovery, 2025)

Molecular target: the molecule itself
Assay: cryo-EM structure; MtCNGC15b alone, in 25 mM Tris pH 8.0, 150 mM NaCl, 0.006% GDN; 3.1 Å; also with 5 mM cGMP (no structural change)

B1: Medicago truncatula CNGC15b (natural protein, M. truncatula, UniProt G7JND3 1-620, looked up)
chain: MVTPKFMSDLFEGDHLELAKLTSPNGDNGIKFNEKHVAPRVLSRVFSEDYKRVKRRRRIFDPRGQTIHQWNKIFLVACLISLFVDPLFFYLPIVQDEVCIDIGIAVEVFLIIIRSIADVFYVIHIFMRFHTAYVAPSSRVFGRGELVIDSSKIASRYLHKGFFLDFIAALPLPQVLIWIVIPNLGGSTIANTKNVLRFIIIIQYLPRLFLIFPLSSQIVKATGVVTETAWAGAAYNLMLYMLASHVLGACWYLLSIERQEACWKSVCKLEESSCQFDFFDCNMVKDSLRVSWFVTSNVTNLCSPNSLFYQFGIYGDAVTSKVTTSAFFNKYFFCLWWGLRNLSSLGQGLLTSTFVGEIMFAIVIATLGLVLFALLIGNMQTYLQSTTVRLEEWRVKRTDTEQWMHHRQLPQELRQSVRKYDQYKWIATRGVDEESLLRGLPLDLRRDIKRHLCLELVRRVPLFDAMDERMLDAICERLKPALCTENTYLVREGDPVNEMLFIIRGNLDSYTTDGGRTGFFNSCRIGPGDFCGEELLTWALDPRPTMVIPSSTRTVKAISEVEAFALIAEDLKFVASQFRRLHSKQLRNKLRFHSHQWRTWAACFIQVAWRRTIQEKKGSC
notes: residues 58-385 were modelled in the apo map; In the functional rows the protein was made from cRNA in Xenopus oocytes with that signal peptide; also called MtCNGC15b; MtCNGC15; source: HEK293F, transfected; purified (anti-Flag M2, Strep-Tactin, SEC) in GDN; not shown: Flag, C-terminal, kept; TwinStrep, C-terminal, kept
B1: binds.
